Laboratory results taken from patent US20250276076A1 (Seagen, published 2025).
Substitutions are numbered along the chain they refer to.

Experiments:
human ALPP (on cells) [1] = biological target: T1, human ALPP (on cells) (human, UniProt P05187 23-506); assay: flow cytometry saturation binding on ALPP-expressing HEK293 cells (row 'nM Kd' of the table under the plot)
T1 construct: the construct in the cells is not further defined; also called placental alkaline phosphatase; PLAP
Description: (§1) Cynomolgus ALPP, human ALPP, ALPPL2, ALPI and ALPL-expressing HEK293 cells were used to evaluate specificity and binding affinity. Briefly, one hundred thousand target-expressing HEK293 cells were transferred to 96-well plates. Cells were pelleted by centrifugation and resuspended in 100 μL of PBS+2% w/v BSA. After blocking, cells were resuspended in PBS+2% w/v BSA with unlabeled monoclonal anti-ALPP/ALPPL2 antibodies ranging in concentration from 8 pM to 666 nM and incubated on ice for 30 minutes. Cells were washed twice in PBS and resuspended in R-PE labeled secondary goat anti-human or anti-mouse antibodies (Jackson Immunoresearch, West Grove, PA) for 30 minutes on ice. […] Fluorescence was analyzed using an Attune NxT flow cytometer, and the percent of saturated fluorescent signal was used to determine percent bound and to subsequently calculate apparent KD.

human ALPPL2 (on cells) [2] = biological target: T2, human ALPPL2 (on cells) (human, UniProt P10696 20-503); assay: flow cytometry saturation binding on ALPPL2-expressing HEK293 cells (row 'nM Kd' of the table under the plot)
T2 construct: the construct in the cells is not further defined; also called HEK-ALPPL2 cells; ALPPL2-expressing LoVo cells
T2 sequence (P10696 20-503 limits assumed): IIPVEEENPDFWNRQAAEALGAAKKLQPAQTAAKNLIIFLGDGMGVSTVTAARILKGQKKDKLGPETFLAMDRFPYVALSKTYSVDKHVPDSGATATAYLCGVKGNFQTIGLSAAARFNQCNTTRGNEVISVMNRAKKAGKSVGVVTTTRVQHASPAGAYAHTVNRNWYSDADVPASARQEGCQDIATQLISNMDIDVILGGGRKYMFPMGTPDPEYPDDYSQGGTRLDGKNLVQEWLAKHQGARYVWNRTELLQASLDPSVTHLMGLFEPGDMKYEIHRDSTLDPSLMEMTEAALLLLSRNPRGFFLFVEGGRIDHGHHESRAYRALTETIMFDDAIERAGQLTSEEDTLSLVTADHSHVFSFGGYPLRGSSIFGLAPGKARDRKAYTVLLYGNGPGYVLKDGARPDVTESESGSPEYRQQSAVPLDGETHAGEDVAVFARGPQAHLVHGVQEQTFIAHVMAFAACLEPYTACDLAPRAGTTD
Description: as §1

human ALPPL2 (on cells) [3] = biological target: T2, human ALPPL2 (on cells); assay: flow cytometry on ALPPL2-expressing HEK293 cells
Description: as §1

human ALPP (on cells) [4] = biological target: T1, human ALPP (on cells); assay: flow cytometry on ALPP-expressing HEK293 cells
Description: as §1

[5] = biological target: T3, hFcγRIIIa V158 (biotinylated avi-tagged, fused with monomeric Fc) (human, UniProt P08637 17-208, biotin on avi tag); assay: BLI (Octet HTX, 30 °C), biotinylated Fc receptor on streptavidin biosensors, ADC as analyte, 1:1 fit, pH 7.4
T3 construct: also called hFcγRIIIa V158 hmFc AAG avi Biotin
T3 sequence (P08637 17-208 F176V): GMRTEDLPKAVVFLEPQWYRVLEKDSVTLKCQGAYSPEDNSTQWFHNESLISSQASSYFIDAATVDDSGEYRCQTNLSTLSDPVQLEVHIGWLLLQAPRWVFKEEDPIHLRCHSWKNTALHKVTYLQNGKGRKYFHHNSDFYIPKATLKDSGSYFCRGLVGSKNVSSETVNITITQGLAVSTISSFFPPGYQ
From the text: (§2) Biotinylated avi-tagged human Fc receptors fused with monomeric Fc (designed and expressed at Seagen) were loaded onto high precision streptavidin biosensors (from ForteBio) to responses around 0.4 nm for all receptors except for hFcγR1 with responses around 1.2 nm. An initial baseline was completed in immobilization buffer (0.1% BSA, 0.02% Tween 20, 1×PBS pH 7.4) followed by a second baseline in kinetic buffer (1% casein, 0.2% Tween 20, 1×PBS pH 7.4 for hFcγRI, IIa, IIIa, and IIb interactions and 1% BSA+0.2% Tween 20, Phosphate Citrate pH 6.0 for hscFcRN interactions). […] Sensorgrams were generated on an Octet HTX system (ForteBio) at 30° C. and globally fitted with the 1:1 kinetic Langmuir isotherm model (Rmax unlinked) after a reference subtraction of the antigen-loaded, 0 nM analyte sensor. Negative controls with the highest concentration of antibodies and ADCs (20 μM) with no Fc receptor immobilized were also included to verify the absence of nonspecific binding of the analyte to the streptavidin biosensors themselves. Specific loading concentrations and times of each receptor to the streptavidin sensors and concentrations of titrated analytes are listed (Table 12 and Table 13).

[6] = biological target: T4, hFcγRIIb (biotinylated avi-tagged, fused with monomeric Fc) (human, UniProt P31994 43-217, biotin on avi tag); assay: as above
T4 construct: also called hFcγRIIb hmFc AAG avi Biotin
T4 sequence (looked up): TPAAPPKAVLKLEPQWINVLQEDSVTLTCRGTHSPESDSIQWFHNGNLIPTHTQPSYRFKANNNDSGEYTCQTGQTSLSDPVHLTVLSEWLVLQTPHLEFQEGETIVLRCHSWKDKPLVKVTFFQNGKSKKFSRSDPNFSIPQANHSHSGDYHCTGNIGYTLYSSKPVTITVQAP
From the text: as §2

[7] = biological target: T5, hscFcRN (biotinylated avi-tagged, fused with monomeric Fc) (human, UniProt P55899 24-297; P61769 21-119, limits assumed, biotin on avi tag); assay: BLI (Octet HTX, 30 °C), biotinylated hFcRN on streptavidin biosensors, ADC as analyte, 1:1 fit, pH 6.0
T5 construct: also called hFcRN; hscFcRN hmFc IHH A avi Biotin
T5 sequence (P55899 24-297 limits assumed, form in doubt, chain 1 of 2): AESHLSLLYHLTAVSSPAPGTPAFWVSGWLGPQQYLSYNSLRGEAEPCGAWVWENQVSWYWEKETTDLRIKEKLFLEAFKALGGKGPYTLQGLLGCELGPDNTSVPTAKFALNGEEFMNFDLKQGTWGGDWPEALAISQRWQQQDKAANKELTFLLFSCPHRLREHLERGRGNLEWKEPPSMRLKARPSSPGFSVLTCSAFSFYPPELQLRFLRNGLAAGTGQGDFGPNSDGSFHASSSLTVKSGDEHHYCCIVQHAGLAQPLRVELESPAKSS
T5 sequence (P61769 21-119 limits assumed, form in doubt, chain 2 of 2): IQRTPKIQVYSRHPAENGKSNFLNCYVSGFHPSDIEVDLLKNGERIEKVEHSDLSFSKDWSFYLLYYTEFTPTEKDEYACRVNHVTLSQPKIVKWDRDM
From the text: as §2

[8] = biological target: T6, hFcγRIIa R131 (biotinylated avi-tagged, fused with monomeric Fc) (human, UniProt P12318 34-217, biotin on avi tag); assay: BLI (Octet HTX, 30 °C), biotinylated Fc receptor on streptavidin biosensors, ADC as analyte, 1:1 fit, pH 7.4
T6 construct: also called hFcγRIIa R131 hmFc AAG avi Biotin
T6 sequence (looked up): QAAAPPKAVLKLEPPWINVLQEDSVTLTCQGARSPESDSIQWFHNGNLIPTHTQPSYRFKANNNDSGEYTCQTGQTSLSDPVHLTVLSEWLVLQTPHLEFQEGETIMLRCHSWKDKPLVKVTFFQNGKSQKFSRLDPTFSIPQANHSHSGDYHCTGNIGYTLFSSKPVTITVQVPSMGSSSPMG
From the text: as §2

[9] = biological target: T7, soluble human ALPP-Fc fusion dimer (human, UniProt P05187 23-506); assay: BLI (Octet), antibody on anti-human Fab-CH1 biosensors, hALPP Fc homodimer as analyte, pH 7.4, 37 °C, bivalent affinity
T7 construct: Made in CHO cells; also called hALPP; hALPP Fc
T7 sequence (P05187 23-506 limits assumed): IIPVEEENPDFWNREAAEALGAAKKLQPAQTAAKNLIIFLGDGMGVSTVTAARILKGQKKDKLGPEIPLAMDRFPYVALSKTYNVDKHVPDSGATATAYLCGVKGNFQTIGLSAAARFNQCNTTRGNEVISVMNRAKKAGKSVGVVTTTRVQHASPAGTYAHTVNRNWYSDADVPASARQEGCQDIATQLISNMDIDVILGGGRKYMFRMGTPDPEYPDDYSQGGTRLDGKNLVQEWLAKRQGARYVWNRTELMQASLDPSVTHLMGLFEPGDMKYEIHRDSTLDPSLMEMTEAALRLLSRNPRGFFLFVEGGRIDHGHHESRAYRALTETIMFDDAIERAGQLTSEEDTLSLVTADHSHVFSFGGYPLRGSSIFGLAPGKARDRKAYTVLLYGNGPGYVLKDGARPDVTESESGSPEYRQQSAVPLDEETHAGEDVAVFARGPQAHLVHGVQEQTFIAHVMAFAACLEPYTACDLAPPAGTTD
From the text: (§3) Soluble human ALPP-Fc and ALPPL2-Fc fusion dimer proteins were generated in CHO cells to be used as the analyte. […] After reference subtraction of the probe only curve, the data was globally fit with a 1:1 model with the Rmax sensor unlinked.

[10] = biological target: T7, soluble human ALPP-Fc fusion dimer; assay: BLI, antibody on FAB2G biosensors, ALPP-Fc dimer as analyte, bivalent, pH 6.0, 37 C
From the text: as §3
(§4) The only difference was the use of a different kinetic buffer (1% casein and 0.2% Tween20 in phosphate citrate pH 6.0).

[11] = biological target: T8, soluble human ALPPL2-Fc fusion dimer (human, UniProt P10696 20-503); assay: BLI (Octet Red 384), antibody on FAB2G biosensors, ALPPL2-Fc dimer as analyte, bivalent, pH 7.4, 37 C, 1:1 global fit
T8 construct: Made in CHO cells; also called hALPPL2
T8 sequence (P10696 20-503 limits assumed): as the sequence (P10696 20-503 limits assumed) above
From the text: as §3

[12] = biological target: T8, soluble human ALPPL2-Fc fusion dimer; assay: BLI, antibody on FAB2G biosensors, ALPPL2-Fc dimer as analyte, bivalent, pH 6.0, 37 C
From the text: as §3, §4

[13] = biological target: T7, soluble human ALPP-Fc fusion dimer; assay: BLI (Octet Red 384), antibody on FAB2G biosensors, ALPP-Fc dimer as analyte, bivalent, pH 7.4, 37 C, 1:1 global fit
From the text: as §3

T1 sequence (P05187 23-506 limits assumed): as the sequence (P05187 23-506 limits assumed) above

B1: murine antibody 12F3 (antibody, V domains shown)
VH: EVKLVESGGGLVQPGGSLSLSCAASGFTFTDYYMSWVRQPPGKALEWLALIRNKATGYTTEYSASVKGRFTISRDNSQSILYLQMNALRAEDSATYYCARASFYYDGKVLAYWGQGTLVTVSA
VL: DTQMTQSPSSLSASLGGKVTITCKASQDINKYIAWYQYKTGKGPRLLIHYTSTLQPGIPSRFSGSGSGRDYSFSISNLEPEDIATYYCLQYDNLYTFGGGTKLEIK
notes: mouse hybridoma antibody; also called SG82-12F3; m12F3
Kd (human ALPP (on cells) [1]): 1.76 nM | Kd (human ALPPL2 (on cells) [2]): 1.48 nM | EC50 (read off the curve) (human ALPPL2 (on cells) [3]): ~0.3 µg/mL | EC50 (read off the curve) (human ALPP (on cells) [4]): ~0.3 µg/mL

B2: h12F3 HGLF-mp-dLAE-MMAE (antibody)
VH: not shown
VL: DTQMTQSPSSLSASVGDRVTITCQASQDINKYLAWYQYKPGKAPKLLIHYTSSLQSGVPSRFSGSGSGRDYTFTISSLQPEDIATYYCLQYDNLYTFGQGTKLEIKRTVAAPSVFIFPPSDEQLKSGTASVVCLLNNFYPREAKVQWKVDNALQSGNSQESVTEQDSKDSTYSLSSTLTLSKADYEKHKVYACEVTHQGLSSPVTKSFNRGEC
modifications: mp-dLAE-PABC-MMAE drug-linker on cysteines of the partially reduced antibody, 4 loads per antibody (chain and site not stated)
notes: antibody-drug conjugate of h12F3 HGLF; also called h12F3-mp-dLAE-MMAE; HGLF-dLAE-MMAE(4); copies: 2 + 2
Kd [5]: 1100 nM | Kd [6]: 36000 nM | Kd [7]: 10.6 nM

B3: h12F3 HGLF-mc-vc-MMAE (antibody)
VH: not shown
VL: B2 VL
modifications: mc-vc-PABC-MMAE drug-linker on cysteines of the partially reduced antibody, 4 loads per antibody (chain and site not stated)
notes: antibody-drug conjugate of h12F3 HGLF; also called h12F3 HGLF-me-vc-MMAE; h12F3 HGLF-vc-MMAE(4); copies: 2 + 2
Kd [8]: 7300 nM | Kd [6]: 67000 nM | Kd [7]: 13.2 nM

B4: h12F3 HFLD (antibody, V domains shown)
VH: EVQLVESGGGLVQPGRSLRLSCTASGFTFTDYYMSWVRQAPGKGLEWLALIRNKATGYTTEYSASVKGRFTISRDNSKSILYLQMNSLKTEDTAVYYCARASFYYDGKVLAYWGQGTLVTVSS
VL: DTQMTQSPSSLSASVGDRVTITCQASQDINKYIAWYQQKPGKAPKLLIYYTSSLQPGVPSRFSGSGSGTDYTFTISSLQPEDIATYYCLQYDNLYTFGQGTKLEIKR
notes: humanized 12F3 IgG variant
Kd [9]: 3.5 nM

B5: h12F3 HGLF (antibody, V domains shown)
VH: B4 VH with S63T
VL: DTQMTQSPSSLSASVGDRVTITCQASQDINKYLAWYQYKPGKAPKLLIHYTSSLQSGVPSRFSGSGSGRDYTFTISSLQPEDIATYYCLQYDNLYTFGQGTKLEIK
notes: Whole humanized IgG; also called humanized 12F3 HGLF; naked h12F3 antibody
Kd [10]: 6.8 nM | Kd [11]: 0.044 nM | Kd [12]: 4.8 nM | Kd [13]: 0.13 nM
